According to patent publication US7193055B2, “Compaction assay for assessment of respiratory disease therapy” (Genentech, Inc., priority 1992, dated 2007):
“Also recorded” adds a separate entry of the source.

What was measured:
[1] = tested on: purulent CF sputum; assay: Compaction assay of CF sputum treated in vitro with rhDNase; type: biochemical, human
Experimental: Approximately 100 μL of sputum was transferred into a tared Eppendorf microcentrifuge tube with a positive displacement pipet (Gilson Microman®, equipped with a stainless steel shaft and plastic plunger). Either rhDNase or control diluent was added as volume equaling 50% of the exact sputum sample weight. Eppendorf tubes were vigorously vortexed for 15 seconds and then incubated for 15 minutes at ambient temperature. Aliquants of the treated sputum were loaded into Kimax-51, 1.5−1.8×90 mm melting point capillary tubes (Kimble Products) using 50 μL Drummond glass capillary tube (Microcaps). The loaded tubes were centrifuged for 20 minutes at 12,000 rpm in a Biofuge A microcentrifuge (Heraeus Sepatech GmbH) equipped with a horizontal, hematocrit-type rotor head (Heraeus Sepatech) and the supernatant/pellet interface subsequently inspected for resolution. On occasion some samples required up to 20 additional minutes to resolve the supernatant-pellet interface clearly. In these cases, all samples loaded on the rotor were centrifuged for the greater duration. The total height of the material loaded into the capillary tubes and the pellet height were measured in millimeters. The percent pellet was calculated as the height of the pellet divided by the height of the total material loaded, multiplied by 100.

[2] = tested on: DNA in sputum samples; assay: Agarose gel electrophoresis of DNA length in sputum samples; type: biochemical, human; parameters: dose or concentration left out as unconfirmed; settings: all six sputum samples; rhDNase, 20 minutes at 25° C.
Experimental: The length of the DNA in sputum samples was determined qualitatively by agarose gel electrophoresis as described by Shak et al., Supra. The effect of freezing on sputum DNA length was studied by electrophoresing samples with and without one cycle of freezing at −70° C. Samples were diluted four-fold in a buffer containing 100 mM NaCl, 5 mM EDTA, 0.5% SDS, 100 μg/ml proteinase K (Sigma), 50 mM Tris, pH 8.0, and incubated for three hours at 37° C. with occasional mixing. Samples were then electrophoresed in 0.5% agarose gels and stained with ethidium bromide by standard procedures (Sambrook, et al., Molecular Cloning: A Laboratory Manual, 2nd ed. Cold Spring Harbor Laboratory Press [1989]). A 1 Kb DNA ladder having 12 major bands between 500 bp to 12 Kb (Gibco/BRL 5615SA) was used as the molecular weight standard.

[3] = tested on: purulent CF sputum; assay: Dynamic cone and plate rheometry of sputum; parameters: species or system human; settings: representative sputum sample, over the range of strain tested, FIG. 4
Experimental: Sputum rheological measurements were made at ambient temperature using the Rheometrics Fluid Rheometer (RFR-7800, Rheometrics Inc. Piscataway, N.J.) with a 0.02 radian, 25 mm radius cone and plate tool. Approximately 0.8 ml sputum was placed on the plate with 25 μL of diluent or rhDNase layered onto the top of the sputum. The cone was lowered onto the sample while the bottom plate was slowly rotated at. 5 rpm to evenly distribute the sample across the gap between the cone and plate. Drying at the sample edge was prevented by pipeting 0.1 poise silicon oil (Dow Chemical) onto the exposed edge of the cone. Rotation of the plate was stopped for five minutes to allow the sample to relax. Each preparation was tested at a deformation rate of 10 radians/sec and the percent strain was varied from 10% to 200% in 10% increments. Percent strain is defined as 100 times the distance of the shearing motion divided by the space between the cone and plate of the viscometer. The second strain value, 20% strain, was used for the comparisons between samples and treatments, being the lowest possible strain for accurate measurement. Instrument start-up frequently compromises the first data point and higher strains can damage network structures (Ferry, J Viscoelastic Properties of Polymers. 3rd ed. John Wiley and Sons, Inc. New York pg. 245-[1980]) resulting in artifacts and irreproducible data.

[4] = tested on: DNA in sputum samples; assay: Total DNA in pellet and supernatant fractions after compaction (DABA assay); type: biochemical, human; settings: all six samples, FIG. 6
Experimental: Sputum sample DNA content was determined by a modification of the diaminobenzoic acid (DABA) assay developed by Kissane and Robins (J Biol Chem 233: 184–188 (1958]) which quantitates total DNA concentration independent of length. Previously frozen sputum aliquants were diluted tenfold with the assay diluent (25 mM HEPES, 1 mg/ml bovine serum albumin, 4 mM CaCl^2, 4 mM MgCl^2, 0.05% polysorbate 20, and 0.01% thimerasol, at pH 7.5) and incubated at 60° C. for one hour. Diluted specimens (50 μL) were pipeted into microtiter plate wells and 50 μL of a 20% 3,5-diaminobenzoic acid hydrochloride (DABA) solution was added after which the plates were tightly sealed. […] A Cytofluor (Millipore Corp.) microtiter plate flurometer (with 390 nm excitation and 530 nm emission filters) was used to read the plates. […] The coefficient of variation for the assay was determined to be <6%.
Approximately 100 μL of sputum was transferred into a tared Eppendorf microcentrifuge tube with a positive displacement pipet (Gilson Microman®, equipped with a stainless steel shaft and plastic plunger). […] The total height of the material loaded into the capillary tubes and the pellet height were measured in millimeters. The percent pellet was calculated as the height of the pellet divided by the height of the total material loaded, multiplied by 100.

[5] = rhDNase concentration in sputum after inhalation; type: in vivo, human; settings: inhalation of 10 mg rhDNase; sputum collected one hour after inhalation
[6] = 1 and 4 mg/mL rhDNase solutions, aerosolized (Aitken et al., Hubbard et al.); cited from earlier work
[7] = catalytic amounts of rhDNase (Shak et al.); cited from earlier work

- concentration above which rhDNase is maximally effective (fit of dose-response curve) ([1]; CF sputum sample, FIG. 7): above 1 μg/ml
- concentration below which rhDNase is minimally effective (fit of dose-response curve) ([1]; CF sputum sample, FIG. 7): below 0.1 μg/ml
- minimum in vitro rhDNase concentration showing activity in the compaction assay ([1]; in vitro, sputum): 1 μg rhDNase/mL sputum
B1: rhDNase: recombinant human DNase I cloned and expressed at Genentech; used as 4 mg/ml solution in 1 mM CaCl2, 150 mM NaCl, pH 7.4 (protein, UniProt P24855 23-282, looked up)
Deoxyribonuclease-1: LKIAAFNIQTFGETKMSNATLVSYIVQILSRYDIALVQEVRDSHLTAVGKLLDNLNQDAPDTYHYVVSEPLGRNSYKERYLFVYRPDQVSAVDSYYYDDGCEPCGNDTFNREPAIVRFFSRFTEVREFAIVPLHAAPGDAVAEIDALYDVYLDVQEKWGLEDVMLMGDFNAGCSYVRPSQWSSIRLWTSPTFQWLIPDSADTTATPTHCAYDRIVVAGMLLRGAVVPDSALPFNFQAAYGLSDQLAQAISDHYPVEVMLK
- DNA size after hydrolysis (complete hydrolysis) [2]: less than 500 base pairs
- effect on elasticity modulus [3]: more greatly affected
- effect on viscosity modulus [3]: reduced measured values of viscosity
- distribution of total DNA between pellet and supernatant following compaction [4]: redistribution of total DNA from the pellet to the supernatant
- concentrations of rhDNase in sputum [5]: 1000 to 20000 ng/mL
- pulmonary function in CF patients [6]: increased pulmonary function; also recorded: improved lung function
- viscosity of purulent cystic fibrosis sputum [7]: greatly reduced the viscosity
